According to patent publication US20050107601A1:

How the values were obtained:
[1] = molecular target: erbB receptors on primary chick myotube cultures; experiment: cell-based or functional assay
[2] = molecular target: erbB receptors on primary chick myotube cultures; experiment: radioligand binding: 0.1 nM 125I-IG-EGF on chick myotubes, 2 hrs on ice, with or without 1 µM cold IG-EGF; cpm bound

Row | duration of p185 phosphorylation after the ligand is washed out (1 nM, 45 min treatment), chick myotubes [1] [h] | erbB receptor (p185) tyrosine phosphorylation on chick myotubes, 45 min, anti-phosphotyrosine western blot; potency relative to the EGF form [1] [fold] | specific binding as percent of total binding [2] [%] | Substance
1 | < 1 |  |  | Recombinant human NRG isolated EGF-like domain construct (amino acids 177-246 of the human β1 form) (from UniProt Q02297 177-246) (ligand)
2 | 8 | 4 | 25 | Recombinant human NRG IG-EGF domain construct (amino acids 14-246 of the human β1 form) (from UniProt Q02297 14-246) (ligand)
